The record followed here is paper PMC5117717.

What is called Kd is the constant that tells how readily two partners part at equilibrium. A lower Kd goes with a tighter complex. By stoichiometry N is commonly meant a count of units in the complex or per binding partner.

Test [1] addresses HumRadA33 (Pyrococcus furiosus) (UniProt O74036). Kind of test: ITC; 25 °C; peptide titrated into protein; 50 mM Tris–HCl (pH 8.5), 250 mM NaCl, 5 mM MgCl2; single-site model. A general note: In ITC the heat of successive injections is recorded.
Test [2] concerns the target ChimRAD51 (archeal human chimeric RadA/RAD51/RadA protein) (Pyrococcus furiosus | human) (UniProt O74036). Kind of test: ITC; 25 °C; ChimRAD51 dialysed against 20 mM K/phosphate (pH 8.0) and 192 mM KCl.
For test [3], the target named is HumRadA1 (first humanised RadA protein) (Pyrococcus furiosus) (UniProt O74036). Kind of test: ITC; 25 °C; peptide titrated into protein; single-site model; the buffer for HumRadA1 is not listed.
In test [4] the target is Alexa Fluor 488-labelled BRC4 peptide (human). In words: fluorescence polarisation; direct binding; 10 nM Alexa Fluor 488-labelled BRC4 peptide constant, protein titrated; 25 °C, 100 mM Tris (pH 7.5), 200 mM KCl, 1.25% glycerol; single-site fit. A general note: Fluorescence polarisation rises when a labelled molecule tumbles more slowly, as on binding a larger partner.
The target of test [5] is HumRadA2 (Pyrococcus furiosus) (UniProt O74036). In words: ITC; 25 °C; peptide titrated into protein; 50 mM Tris–HCl (pH 7.5), 150 mM NaCl, 5 mM MgCl2; single-site model.
Test [6] concerns the target unlabelled BRC4 repeat (E. coli-produced). Kind of test: DSF (thermal shift). The settings on record: read off a plot.
Test [7] deals with RadA oligomerisation peptide. In words: DSF (thermal shift). The note with it: read off a plot.
Test [8] addresses ATP-Mg2+. In words: DSF (thermal shift). The settings on record: read off a plot.

Substance “unlabelled BRC4 repeat (E. coli-produced) (peptide)” displayed a Kd in test [1] of 33 nM. The substance also showed a stoichiometry N in test [2] of 1.

On to RAD51 oligomerisation peptide, for which the Kd in test [1] came to 800 nM; in test [3] it was 24000 nM.

Substance “ChimRAD51 (archeal human chimeric RadA/RAD51/RadA protein) (from UniProt O74036 108-165; Q06609 156-261; O74036 278-349)” gave a Kd in test [4] of 4 nM.

As for RadA oligomerisation peptide, the Kd in test [5] was 3400 nM; in test [1], 14000 nM; in test [3], 1800 nM.

On to “PfRadA monomeric C-terminal ATPase domain (from residue 108, L2 loop deleted) I169M; Y201A; V202Y; L213Q; V215L; Q216Y; E219S; D220A; K221M; D267M; L274E; Y275F”, for which the other: ΔT (DSF thermal shift on ligand addition) in test [6] turned out to be 0.15 °C; in test [7], 2.7 °C; in test [8], 6.1 °C.

As to “PfRadA monomeric C-terminal ATPase domain (from residue 108, L2 loop deleted) I169M; Y201A; V202Y; E219S; D220A; K221M”, in test [6], the other: ΔT (DSF thermal shift on ligand addition) was 0.3 °C.
